Here are results for 2 molecules from patent publication US20230192860A1 (Bristol-Myers Squibb, published 2023).

Test [1] addresses T1, monovalent hVISTA-ECD (amino acids 32-193 of SEQ ID NO: 1 with a 7xHis tail) (human, UniProt Q9H7M9 33-193).
T1 construct: analyte of the SPR assays; also called huVISTA-His; human VISTA-ECD
Nature of the test: SPR 37C, pH 7.4 over pH 6.0. The protocol: For this assay, ‘029, ‘761 and ‘767were reformatted as hIgG1f isotype and were expressed as both standard hIgG1f and in hIgG1f afucosylated formats to compare against the hIgG1.3f Fc. An SPR kinetics assay was conducted to measure koff and KD binding affinity measurements for VISTA Abs at acidic and physiological pH using a Biacore® T100 instrument (GE Healthcare). […] Antibodies were diluted to 25 nM in PBST pH 7.4, and were captured across active biosensor flow cells at 5 ul/min for 45 seconds. A concentration series of 1600 - 0.78 nM (pH 7.4) and 100 - 0.78 nM (pH 6.0) monovalent hVISTA-ECD (SEQ ID NO: 325) was prepared running buffer, and was injected over the captured antibodies at 40 ul/min to measure association and dissociation. Two 15 second injections of 10 mM glycine pH 1.5 were used to regenerate the Protein A capture surface between assay cycles. Rate constants ka (kₒₙ) and kd (koff) were derived from reference flow cell and 0 nM blank-subtracted sensorgrams, and were fit to a 1:1 binding model in Biacore® T200 Evaluation Software v.2.0. The affinity constant, KD was calculated as the ratio of rate constants koff/kₒₙ for each VISTA antibody. Ratios of koff and KD at pH 7.4 / pH 6.0 were calculated to compare off-rate and affinity improvement at acidic pH relative to physiological pH.

Test [2] addresses T1, monovalent hVISTA-ECD (amino acids …). Nature of the test: SPR 37C, Ab on Protein A, hVISTA-ECD 100-0.78 nM, pH 6.45. On the procedure: (§1) Human VISTA binding kinetics of P1-061029 (“ ‘029”), P1-068761 (“ ‘761”) and P1-068767 (“ ‘767”) (as IgG1.3 antibodies) were measured at pH values between pH 7.4 and pH 6.0, i.e., at pH 6.9 and pH 6.45 using a Biacore® T100 instrument (GE Healthcare). […] Antibodies were diluted to 25 nM in PBST pH 7.4, and were captured across active biosensor flow cells at 5 ul/min for 45 seconds. A concentration series of 100 - 0.78 nM monovalent hVISTA-ECD (SEQ ID NO: 325) was prepared pH 7.4, 6.9, 6.45 and 6.0 running buffers, and was injected over the captured antibodies at 40 ul/min to measure association and dissociation. Two 15 second injections of 10 mM glycine pH 1.5 were used to regenerate the Protein A capture surface between assay cycles. Rate constants ka (kₒₙ) and kd (koff) were derived from reference flow cell and 0 nM blank-subtracted sensorgrams, and were fit to a 1:1 binding model in Biacore® T200 Evaluation Software v.2.0. The affinity constant, KD was calculated as the ratio of rate constants koff/kₒₙ for each VISTA antibody. Ratios of koff and KD at each pH relative to pH 6.0 were calculated to evaluate how the VISTA koff and KD change as the buffer pH shifts to physiological, and are shown in Table 7. […] As the buffer pH shifts from acidic to physiological, VISTA koff and KD both weaken for ‘761 and ‘767. Physiological pH data for ‘761 and ‘767 for comparison is referenced from Table 7 and noted with an asterisk (*).

For test [3] the target is unchanged. Put plainly: SPR 37C, pH 6.0 over pH 6.0.
For test [4] the target is unchanged. Put plainly: SPR 37C, Ab on Protein A, hVISTA-ECD 100-0.78 nM, pH 6.0. The protocol: as §1
For test [5] the target is unchanged. Nature of the test: SPR 37C, Ab on Protein A, hVISTA-ECD 50-0.2 nM, column headed pH 7 (running buffer pH 7.4 in the text). The protocol: Surface plasmon resonance (SPR) analysis was performed to measure the association rates (defined as ka or kₒₙ, 1/Ms units), dissociation rates (defined as kd or koff, s⁻¹ units) and affinity constants (defined as KD, M units) for VISTA Abs at acidic and physiological pHs using a Biacore® T200 instrument (GE Healthcare). […] Antibodies were diluted to 20 nM in PBST pH 7.4, and were captured across active biosensor flow cells at 5 ul/min for 50 seconds. A concentration series of 50 - 0.2 nM monovalent hVISTA-ECD (SEQ ID NO: 325) was prepared in pH 7.4 and 6.0 running buffers, and was injected over the captured antibodies at 40 ul/min to measure association and dissociation. Two 15 second injections of 10 mM glycine pH 1.5 were used to regenerate the Protein A capture surface between assay cycles. Rate constants kₐ (kₒₙ) and kd (kₒff) were derived from reference flow cell and 0 nM blank-subtracted sensorgrams, and were fit to a 1:1 binding model in Biacore® T200 Evaluation Software v.2.0.

Test [6] has the same target. Nature of the test: SPR, Ab on Protein A, hVISTA 100-7.8 nM, pH 7.4. The protocol:
Further binding kinetic experiments were performed at various pHs on VISTA antibodies described herein by SPR as generally described in Example 9 above. Antibodies were normalized to 50 nM concentration in PBST pH 7.4 and captured on a Protein A CM5 chip (ID 4931) by injecting for 45 seconds at a 5 µL/min flow rate. An 8-point human VISTA titration ([…]) was prepared in PBST at pH 7.4, 6.9, 6.45, and 6.0. Titrations were injected over the captured antibodies for 180 seconds at 30 µL/min. Sensorgrams were fit to a 1:1 binding model in T200 evaluation software and the kinetic constants were reported.

The Kd is the concentration at which binding is half-saturated. Read a high Kd as weaker binding. As a reminder, the koff is the rate constant with which the complex falls apart. In general, kon refers to the rate constant with which the complex forms. Read a high kon as faster complex formation.

T1 sequence (Q9H7M9 other isoform, or with tags, fused parts or gaps limits assumed): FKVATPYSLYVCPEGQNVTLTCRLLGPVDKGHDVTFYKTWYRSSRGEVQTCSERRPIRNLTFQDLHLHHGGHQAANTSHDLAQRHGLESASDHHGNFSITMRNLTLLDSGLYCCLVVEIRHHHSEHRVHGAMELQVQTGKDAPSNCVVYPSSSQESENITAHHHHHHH

B1: P1-061029.IgG1.3 (antibody)
heavy: EVQLVESGGGLVQPGKSLRLSCAASGFTLDDYAMHWVRQAPGKGLEWVSGINWNSANIGYADSVKGRFTISRDNAKNSLYLQMNSLRTEDTALYYCAKVPGYSGGWIDAFDVWGQGTMVTVSSASTKGPSVFPLAPSSKSTSGGTAALGCLVKDYFPEPVTVSWNSGALTSGVHTFPAVLQSSGLYSLSSVVTVPSSSLGTQTYICNVNHKPSNTKVDKRVEPKSCDKTHTCPPCPAPEAEGAPSVFLFPPKPKDTLMISRTPEVTCVVVDVSHEDPEVKFNWYVDGVEVHNAKTKPREEQYNSTYRVVSVLTVLHQDWLNGKEYKCKVSNKALPAPIEKTISKAKGQPREPQVYTLPPSREEMTKNQVSLTCLVKGFYPSDIAVEWESNGQPENNYKTTPPVLDSDGSFFLYSKLTVDKSRWQQGNVFSCSVMHEALHNHYTQKSLSLSPG
light: not shown
notes: IgG1.3; also called P1-061029 (parent); P1-061029-18
In the case of B1, in test [1], the “KD ratio (7.4/6)” value came out at 5.8 and the “kd ratio (7.4/6)” value turned out to be 0.9. In test [2], this molecule returned a Kd of 5.3 nM, a koff of 0.004 s⁻¹ and a kon of 740000 M⁻¹ s⁻¹. Further, in test [3], the “KD ratio to pH 6.0” value is 1 and the “koff ratio to pH 6.0” value stood at 1. In test [4], this molecule had an equilibrium dissociation constant (Kd) of 2 nM, a koff of 0.0057 s⁻¹ and a kon of 2.9e+06 M⁻¹ s⁻¹. In addition, in test [5], the koff came out at 0.0091 s⁻¹. In test [6], this molecule showed a Kd of 13 nM, an off-rate constant (koff) of 0.00603 s⁻¹ and a kon of 463000 M⁻¹ s⁻¹.

B2: P1-068761.IgG1.3 (antibody)
heavy: EVQLVESGGGLVQPGKSLRLSCAASGFTLEDEAMHWVRQAPGKGLEWVSGINWNSEEIGYADSVKGRFTISRDNAKNSLYLQMNSLRTEDTALYYCAKVPGYSHGWIDAEDVWGQGTMVTVSSASTKGPSVFPLAPSSKSTSGGTAALGCLVKDYFPEPVTVSWNSGALTSGVHTFPAVLQSSGLYSLSSVVTVPSSSLGTQTYICNVNHKPSNTKVDKRVEPKSCDKTHTCPPCPAPEAEGAPSVFLFPPKPKDTLMISRTPEVTCVVVDVSHEDPEVKFNWYVDGVEVHNAKTKPREEQYNSTYRVVSVLTVLHQDWLNGKEYKCKVSNKALPAPIEKTISKAKGQPREPQVYTLPPSREEMTKNQVSLTCLVKGFYPSDIAVEWESNGQPENNYKTTPPVLDSDGSFFLYSKLTVDKSRWQQGNVFSCSVMHEALHNHYTQKSLSLSPG
light: not shown
notes: IgG1.3; also called P1-068761-20; P1-068761 hIgG1.3f
For the molecule B2, in test [1], the “KD ratio (7.4/6)” value was 2560 and the “kd ratio (7.4/6)” value worked out at 26.3. In test [2], this molecule had a Kd of 20 nM, a koff of 0.0021 s⁻¹ and a kon of 110000 M⁻¹ s⁻¹. Also, in test [3], the “KD ratio to pH 6.0” value stood at 1 and the “koff ratio to pH 6.0” value was found to be 1. Further, in test [4], the affinity, expressed as Kd, was 1.1 nM; the koff was 0.00066 s⁻¹; the kon is 600000 M⁻¹ s⁻¹.
